Assay results as given in US20210179689A1 (SHATTUCK LABS, published 2021).
Each block holds one molecule with its values, some of them ahead of it.

Tests used:
mIgG Fc gamma [1] = test: sandwich ELISA: coat mIgG Fc gamma, detection goat anti-mouse Fc (H+L) HRP; standard: mouse whole IgG
[2] = molecular target: recombinant mouse CD40-Fc protein (mouse) (UniProt P27512); test: ELISA: coat mCD40-Fc, detection anti-mCD40L and an HRP conjugate
human galectin-9 (human) [3] = molecular target: human galectin-9 (human) (UniProt O00182); test: Octet biolayer interferometry; Loading Sample ID hGal9; Full R^2 0.9934
mIgG Fc gamma [4] = test: sandwich ELISA: coat mIgG Fc gamma, detection goat anti-mouse Fc (H+L) HRP
human CD40 [5] = molecular target: T1, human CD40 (human, UniProt P25942 21-193); test: Octet biolayer interferometry; Loading Sample ID hCD40-his; Full R^2 0.3080
T1 construct: also called hCD40

human CD40 [6] = molecular target: T1, human CD40; test: Octet biolayer interferometry; Loading Sample ID hCD40-his; Full R^2 0.9393
human CD40 [7] = molecular target: T1, human CD40; test: Octet biolayer interferometry; Loading Sample ID hCD40-his; Full R^2 0.9810
murine CD40 [8] = molecular target: T2, murine CD40 (murine, UniProt P27512 20-193, limits assumed); test: Octet biolayer interferometry; Loading Sample ID mCD40-his; Full R^2 0.7890
T2 construct: also called mCD40
T2 sequence (looked up): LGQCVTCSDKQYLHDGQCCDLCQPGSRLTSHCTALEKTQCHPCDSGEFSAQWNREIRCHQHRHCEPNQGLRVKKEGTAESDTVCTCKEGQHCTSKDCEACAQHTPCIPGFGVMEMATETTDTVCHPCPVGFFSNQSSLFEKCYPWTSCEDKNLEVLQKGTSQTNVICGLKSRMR

murine CD40 [9] = molecular target: T2, murine CD40; test: Octet biolayer interferometry; Loading Sample ID mCD40-his; Full R^2 0.9955
[10] = molecular target: murine galectin-9 (murine) (UniProt O08573); test: Octet biolayer interferometry; Loading Sample ID mGal9; Full R^2 0.9866
[11] = molecular target: murine galectin-9 (murine) (UniProt O08573); test: Octet biolayer interferometry; Loading Sample ID mGal9; Full R^2 0.9973
human galectin-9 (human) [12] = molecular target: human galectin-9 (human) (UniProt O00182); test: Octet biolayer interferometry; Loading Sample ID hGal9; kdis(1/s); Full R^2 0.9934
human CD40 [13] = molecular target: T1, human CD40; test: Octet biolayer interferometry; Loading Sample ID hCD40-his; kdis(1/s); Full R^2 0.3080
human CD40 [14] = molecular target: T1, human CD40; test: Octet biolayer interferometry; Loading Sample ID hCD40-his; kdis(1/s); Full R^2 0.9393
human CD40 [15] = molecular target: T1, human CD40; test: Octet biolayer interferometry; Loading Sample ID hCD40-his; kdis(1/s); Full R^2 0.9810
murine CD40 [16] = molecular target: T2, murine CD40; test: Octet biolayer interferometry; Loading Sample ID mCD40-his; kdis(1/s); Full R^2 0.7890
murine CD40 [17] = molecular target: T2, murine CD40; test: Octet biolayer interferometry; Loading Sample ID mCD40-his; kdis(1/s); Full R^2 0.9955
[18] = molecular target: murine galectin-9 (murine) (UniProt O08573); test: Octet biolayer interferometry; Loading Sample ID mGal9; kdis(1/s); Full R^2 0.9866
[19] = molecular target: murine galectin-9 (murine) (UniProt O08573); test: Octet biolayer interferometry; Loading Sample ID mGal9; kdis(1/s); Full R^2 0.9973
human CD40 [20] = molecular target: T1, human CD40; test: Octet biolayer interferometry; Loading Sample ID hCD40-his; Full R^2 0.9682
murine CD40 [21] = molecular target: T2, murine CD40; test: Octet biolayer interferometry; Loading Sample ID mCD40-his; Full R^2 0.7077
human CD40 [22] = molecular target: T1, human CD40; test: Octet biolayer interferometry; Loading Sample ID hCD40-his; kdis(1/s); Full R^2 0.9682
murine CD40 [23] = molecular target: T2, murine CD40; test: Octet biolayer interferometry; Loading Sample ID mCD40-his; kdis(1/s); Full R^2 0.7077
human CD40 [24] = molecular target: T1, human CD40; test: Octet biolayer interferometry; Loading Sample ID hCD40-his; Full R^2 0.5111
murine CD40 [25] = molecular target: T2, murine CD40; test: Octet biolayer interferometry; Loading Sample ID mCD40-his; Full R^2 0.9077
human CD40 [26] = molecular target: T1, human CD40; test: Octet biolayer interferometry; Loading Sample ID hCD40-his; kdis(1/s); Full R^2 0.5111
murine CD40 [27] = molecular target: T2, murine CD40; test: Octet biolayer interferometry; Loading Sample ID mCD40-his; kdis(1/s); Full R^2 0.9077
murine CD40 [28] = molecular target: T2, murine CD40; test: Octet biolayer interferometry; Loading Sample ID mCD40-his; KD and kdis cells blank; Full R^2 0.6015

T1 sequence (P25942 21-193 limits assumed): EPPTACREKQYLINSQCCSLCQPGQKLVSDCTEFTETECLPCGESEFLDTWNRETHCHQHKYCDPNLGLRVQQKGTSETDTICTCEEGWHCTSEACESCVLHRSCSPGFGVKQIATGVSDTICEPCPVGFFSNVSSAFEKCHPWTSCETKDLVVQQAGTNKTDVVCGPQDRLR
Sequence of murine galectin-9 (murine) (O08573 other isoform, or with tags, fused parts or gaps limits assumed): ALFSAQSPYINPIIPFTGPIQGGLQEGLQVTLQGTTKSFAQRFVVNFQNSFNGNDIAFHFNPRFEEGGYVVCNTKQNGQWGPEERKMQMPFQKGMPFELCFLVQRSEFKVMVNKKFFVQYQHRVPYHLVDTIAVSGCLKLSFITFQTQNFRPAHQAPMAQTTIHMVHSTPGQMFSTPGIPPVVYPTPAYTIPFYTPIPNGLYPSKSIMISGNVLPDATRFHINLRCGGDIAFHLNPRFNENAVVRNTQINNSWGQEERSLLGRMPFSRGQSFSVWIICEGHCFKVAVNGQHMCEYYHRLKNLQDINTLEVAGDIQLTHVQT
Sequence of human galectin-9 (human) (O00182 other isoform, or with tags, fused parts or gaps limits assumed): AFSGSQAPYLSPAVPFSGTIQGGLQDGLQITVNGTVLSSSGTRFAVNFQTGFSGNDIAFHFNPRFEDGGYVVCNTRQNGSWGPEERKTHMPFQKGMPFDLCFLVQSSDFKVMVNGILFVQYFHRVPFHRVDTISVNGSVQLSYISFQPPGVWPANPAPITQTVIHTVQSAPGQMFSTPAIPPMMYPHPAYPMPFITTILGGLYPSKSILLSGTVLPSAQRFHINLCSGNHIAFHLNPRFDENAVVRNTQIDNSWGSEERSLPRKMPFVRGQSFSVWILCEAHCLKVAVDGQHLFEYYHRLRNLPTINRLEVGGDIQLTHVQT

Molecule: hCD40L-Fc (Fc fusion)
- Kd (human CD40 [20]): 6.18 nM
- kon (human CD40 [20]): 120000 M⁻¹ s⁻¹
- Kd (murine CD40 [21]): 10.6 nM
- kon (murine CD40 [21]): 229000 M⁻¹ s⁻¹
- koff (human CD40 [22]): 0.000734 s⁻¹
- koff (murine CD40 [23]): 0.00241 s⁻¹

B1: mCD40L-Fc fusion protein (Fc fusion, murine, UniProt P27548 112-260, looked up)
chain: MQRGDEDPQIAAHVVSEANSNAASVLQWAKKGYYTMKSNLVMLENGKQLTVKREGLYYVYTQVTFCSNREPSSQRPFIVGLWLKPSSGSERILLKAANTHSSSQLCEQQSVHLGGVFELQAGASVFVNVTEASQVIHRVGFSSFGLLKL
notes: also called recombinant mCD40L-Fc protein; not shown: Fc part
- Kd (human CD40 [24]): 4.8 nM
- kon (human CD40 [24]): 220000 M⁻¹ s⁻¹
- Kd (murine CD40 [25]): 14.1 nM
- kon (murine CD40 [25]): 81500 M⁻¹ s⁻¹
- koff (human CD40 [26]): 0.00115 s⁻¹
- koff (murine CD40 [27]): 0.00114 s⁻¹
- kon (murine CD40 [28]): 118000 M⁻¹ s⁻¹

More lines, now with the values ahead:

- EC50 (read off the curve) (mIgG Fc gamma [1]): 2 nM
Molecule: mouse IgG (antibody)

- EC50 (read off the curve) [2]: 10 nM
- Kd (human galectin-9 (human) [3]): 69 nM
- EC50 (read off the curve) (mIgG Fc gamma [4]): 4 nM
- Kd (human CD40 [5]): 9.37 nM
- Kd (human CD40 [6]): 9.46 nM
- kon (human CD40 [6]): 59400 M⁻¹ s⁻¹
- Kd (human CD40 [7]): 3 nM
- kon (human CD40 [7]): 30600 M⁻¹ s⁻¹
- Kd (murine CD40 [8]): 29.9 nM
- kon (murine CD40 [8]): 79200 M⁻¹ s⁻¹
- Kd (murine CD40 [9]): 8.92 nM
- kon (murine CD40 [9]): 33700 M⁻¹ s⁻¹
- Kd [10]: 7.07 nM
- kon [10]: 114000 M⁻¹ s⁻¹
- Kd [11]: 16.7 nM
- kon [11]: 58500 M⁻¹ s⁻¹
- koff (human galectin-9 (human) [12]): 0.00108 s⁻¹
- koff (human CD40 [13]): 0.00103 s⁻¹
- koff (human CD40 [14]): 0.000733 s⁻¹
- koff (human CD40 [15]): 0.000103 s⁻¹
- koff (murine CD40 [16]): 0.00286 s⁻¹
- koff (murine CD40 [17]): 0.000295 s⁻¹
- koff [18]: 0.000803 s⁻¹
- koff [19]: 0.00098 s⁻¹
Molecule: mTIM-3-Fc-CD40L chimeric protein (from UniProt Q8VIM0 20-193; P27548 47-260) (Fc fusion)
